# Test results as given in patent US20140087995A1 (published 2014).
# Numbered stars: 1 amine (or outer) side, 2 acyl side, 3 side chain; on linkers, the order of the positions; unused ones are H or OH. Bridge positions count the residues as written; N and C are the ends. Side chains are listed from the residue outwards. Ends that are not written are not given here. * marks the point of attachment. C20 diacid = O=C(O)CCCCCCCCCCCCCCCCCCC(=O)*; γGlu = O=C(O)[C@H](CCC(=O)[*:2])N[*:1]; AEEA = NCCOCCOCC(=O)O
# T1: human calcitonin receptor (human, UniProt P30988 25-474)
# T1 sequence (looked up): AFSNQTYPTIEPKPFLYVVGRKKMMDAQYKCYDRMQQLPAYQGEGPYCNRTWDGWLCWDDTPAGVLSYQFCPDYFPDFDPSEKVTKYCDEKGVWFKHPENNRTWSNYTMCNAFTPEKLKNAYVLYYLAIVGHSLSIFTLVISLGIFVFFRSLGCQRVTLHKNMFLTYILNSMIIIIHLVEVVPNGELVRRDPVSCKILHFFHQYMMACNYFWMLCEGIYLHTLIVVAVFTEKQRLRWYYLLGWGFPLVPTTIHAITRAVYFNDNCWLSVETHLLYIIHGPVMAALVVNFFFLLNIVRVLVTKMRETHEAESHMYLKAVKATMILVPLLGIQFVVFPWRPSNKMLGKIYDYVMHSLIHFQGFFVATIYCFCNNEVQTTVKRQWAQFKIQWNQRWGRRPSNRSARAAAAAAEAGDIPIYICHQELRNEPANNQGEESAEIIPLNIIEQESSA
# B1: N^ε1-[2-[2-[2-[[(4S)-4-carboxy-4-(19-carboxynonadecanoylamino)butanoyl]amino]ethoxy]ethoxy]acetyl]-[Ser14,Arg17,Pro21,Pro27,Pro31]-h-amylin (peptide)
# peptide: K([AEEA-γGlu-C20 diacid])CNTATCATQRLASFLRHSSPNFGAIPSSTPVGSNTY-NH2
# modifications: disulfide 2-7; N-terminus assumed
# SMILES: CC[C@H](C)[C@H](NC(=O)[C@H](C)NC(=O)CNC(=O)[C@H](Cc1ccccc1)NC(=O)[C@H](CC(N)=O)NC(=O)[C@@H]1CCCN1C(=O)[C@H](CO)NC(=O)[C@H](CO)NC(=O)[C@H](Cc1c[nH]cn1)NC(=O)[C@H](CCCNC(=N)N)NC(=O)[C@H](CC(C)C)NC(=O)[C@H](Cc1ccccc1)NC(=O)[C@H](CO)NC(=O)[C@H](C)NC(=O)[C@H](CC(C)C)NC(=O)[C@H](CCCNC(=N)N)NC(=O)[C@H](CCC(N)=O)NC(=O)[C@@H](NC(=O)[C@H](C)NC(=O)[C@@H]1CSSC[C@H](NC(=O)[C@@H](N)CCCCNC(=O)COCCOCCNC(=O)CC[C@H](NC(=O)CCCCCCCCCCCCCCCCCCC(=O)O)C(=O)O)C(=O)N[C@@H](CC(N)=O)C(=O)N[C@@H]([C@@H](C)O)C(=O)N[C@@H](C)C(=O)N[C@@H]([C@@H](C)O)C(=O)N1)[C@@H](C)O)C(=O)N1CCC[C@H]1C(=O)N[C@@H](CO)C(=O)N[C@@H](CO)C(=O)N[C@H](C(=O)N1CCC[C@H]1C(=O)N[C@H](C(=O)NCC(=O)N[C@@H](CO)C(=O)N[C@@H](CC(N)=O)C(=O)N[C@H](C(=O)N[C@@H](Cc1ccc(O)cc1)C(N)=O)[C@@H](C)O)C(C)C)[C@@H](C)O
# notes: analogue of human amylin; also called compound 73
# B2: N^ε1-[(4S)-4-carboxy-4-(19-carboxynonadecanoylamino)butanoyl]-[Arg14,Arg17,Pro21,Pro27,Pro31]-h-amylin (peptide)
# peptide: K([γGlu-C20 diacid])CNTATCATQRLARFLRHSSPNFGAIPSSTPVGSNTY-NH2
# modifications: disulfide 2-7; N-terminus assumed
# SMILES: CC[C@H](C)[C@H](NC(=O)[C@H](C)NC(=O)CNC(=O)[C@H](Cc1ccccc1)NC(=O)[C@H](CC(N)=O)NC(=O)[C@@H]1CCCN1C(=O)[C@H](CO)NC(=O)[C@H](CO)NC(=O)[C@H](Cc1c[nH]cn1)NC(=O)[C@H](CCCNC(=N)N)NC(=O)[C@H](CC(C)C)NC(=O)[C@H](Cc1ccccc1)NC(=O)[C@H](CCCNC(=N)N)NC(=O)[C@H](C)NC(=O)[C@H](CC(C)C)NC(=O)[C@H](CCCNC(=N)N)NC(=O)[C@H](CCC(N)=O)NC(=O)[C@@H](NC(=O)[C@H](C)NC(=O)[C@@H]1CSSC[C@H](NC(=O)[C@@H](N)CCCCNC(=O)CC[C@H](NC(=O)CCCCCCCCCCCCCCCCCCC(=O)O)C(=O)O)C(=O)N[C@@H](CC(N)=O)C(=O)N[C@@H]([C@@H](C)O)C(=O)N[C@@H](C)C(=O)N[C@@H]([C@@H](C)O)C(=O)N1)[C@@H](C)O)C(=O)N1CCC[C@H]1C(=O)N[C@@H](CO)C(=O)N[C@@H](CO)C(=O)N[C@H](C(=O)N1CCC[C@H]1C(=O)N[C@H](C(=O)NCC(=O)N[C@@H](CO)C(=O)N[C@@H](CC(N)=O)C(=O)N[C@H](C(=O)N[C@@H](Cc1ccc(O)cc1)C(N)=O)[C@@H](C)O)C(C)C)[C@@H](C)O
# notes: analogue of human amylin; also called compound 63
# B3: N^ε1-[2-[2-[2-[[(4S)-4-carboxy-4-(19-carboxynonadecanoylamino)butanoyl]amino]ethoxy]ethoxy]acetyl]-[Thr14,Arg17,Pro21,Pro27,Pro31]-h-amylin (peptide)
# peptide: K([AEEA-γGlu-C20 diacid])CNTATCATQRLATFLRHSSPNFGAIPSSTPVGSNTY-NH2
# modifications: disulfide 2-7; N-terminus assumed
# SMILES: CC[C@H](C)[C@H](NC(=O)[C@H](C)NC(=O)CNC(=O)[C@H](Cc1ccccc1)NC(=O)[C@H](CC(N)=O)NC(=O)[C@@H]1CCCN1C(=O)[C@H](CO)NC(=O)[C@H](CO)NC(=O)[C@H](Cc1c[nH]cn1)NC(=O)[C@H](CCCNC(=N)N)NC(=O)[C@H](CC(C)C)NC(=O)[C@H](Cc1ccccc1)NC(=O)[C@@H](NC(=O)[C@H](C)NC(=O)[C@H](CC(C)C)NC(=O)[C@H](CCCNC(=N)N)NC(=O)[C@H](CCC(N)=O)NC(=O)[C@@H](NC(=O)[C@H](C)NC(=O)[C@@H]1CSSC[C@H](NC(=O)[C@@H](N)CCCCNC(=O)COCCOCCNC(=O)CC[C@H](NC(=O)CCCCCCCCCCCCCCCCCCC(=O)O)C(=O)O)C(=O)N[C@@H](CC(N)=O)C(=O)N[C@@H]([C@@H](C)O)C(=O)N[C@@H](C)C(=O)N[C@@H]([C@@H](C)O)C(=O)N1)[C@@H](C)O)[C@@H](C)O)C(=O)N1CCC[C@H]1C(=O)N[C@@H](CO)C(=O)N[C@@H](CO)C(=O)N[C@H](C(=O)N1CCC[C@H]1C(=O)N[C@H](C(=O)NCC(=O)N[C@@H](CO)C(=O)N[C@@H](CC(N)=O)C(=O)N[C@H](C(=O)N[C@@H](Cc1ccc(O)cc1)C(N)=O)[C@@H](C)O)C(C)C)[C@@H](C)O
# notes: analogue of human amylin; also called compound 75
# B4: N^ε1-[(4S)-4-carboxy-4-(19-carboxynonadecanoylamino)butanoyl]-[Arg17,Pro21,Pro27,Glu35]-h-amylin (peptide)
# peptide: K([γGlu-C20 diacid])CNTATCATQRLANFLRHSSPNFGAIPSSTNVGSETY-NH2
# modifications: disulfide 2-7; N-terminus assumed
# SMILES: CC[C@H](C)[C@H](NC(=O)[C@H](C)NC(=O)CNC(=O)[C@H](Cc1ccccc1)NC(=O)[C@H](CC(N)=O)NC(=O)[C@@H]1CCCN1C(=O)[C@H](CO)NC(=O)[C@H](CO)NC(=O)[C@H](Cc1c[nH]cn1)NC(=O)[C@H](CCCNC(=N)N)NC(=O)[C@H](CC(C)C)NC(=O)[C@H](Cc1ccccc1)NC(=O)[C@H](CC(N)=O)NC(=O)[C@H](C)NC(=O)[C@H](CC(C)C)NC(=O)[C@H](CCCNC(=N)N)NC(=O)[C@H](CCC(N)=O)NC(=O)[C@@H](NC(=O)[C@H](C)NC(=O)[C@@H]1CSSC[C@H](NC(=O)[C@@H](N)CCCCNC(=O)CC[C@H](NC(=O)CCCCCCCCCCCCCCCCCCC(=O)O)C(=O)O)C(=O)N[C@@H](CC(N)=O)C(=O)N[C@@H]([C@@H](C)O)C(=O)N[C@@H](C)C(=O)N[C@@H]([C@@H](C)O)C(=O)N1)[C@@H](C)O)C(=O)N1CCC[C@H]1C(=O)N[C@@H](CO)C(=O)N[C@@H](CO)C(=O)N[C@H](C(=O)N[C@@H](CC(N)=O)C(=O)N[C@H](C(=O)NCC(=O)N[C@@H](CO)C(=O)N[C@@H](CCC(=O)O)C(=O)N[C@H](C(=O)N[C@@H](Cc1ccc(O)cc1)C(N)=O)[C@@H](C)O)C(C)C)[C@@H](C)O
# notes: analogue of human amylin; also called compound 27
# B5: N^ε1-[(4S)-4-carboxy-4-(19-carboxynonadecanoylamino)butanoyl]-[Arg14,Arg17,Pro21,Pro27,Pro34]-h-amylin (peptide)
# peptide: K([γGlu-C20 diacid])CNTATCATQRLARFLRHSSPNFGAIPSSTNVGPNTY-NH2
# modifications: disulfide 2-7; N-terminus assumed
# SMILES: CC[C@H](C)[C@H](NC(=O)[C@H](C)NC(=O)CNC(=O)[C@H](Cc1ccccc1)NC(=O)[C@H](CC(N)=O)NC(=O)[C@@H]1CCCN1C(=O)[C@H](CO)NC(=O)[C@H](CO)NC(=O)[C@H](Cc1c[nH]cn1)NC(=O)[C@H](CCCNC(=N)N)NC(=O)[C@H](CC(C)C)NC(=O)[C@H](Cc1ccccc1)NC(=O)[C@H](CCCNC(=N)N)NC(=O)[C@H](C)NC(=O)[C@H](CC(C)C)NC(=O)[C@H](CCCNC(=N)N)NC(=O)[C@H](CCC(N)=O)NC(=O)[C@@H](NC(=O)[C@H](C)NC(=O)[C@@H]1CSSC[C@H](NC(=O)[C@@H](N)CCCCNC(=O)CC[C@H](NC(=O)CCCCCCCCCCCCCCCCCCC(=O)O)C(=O)O)C(=O)N[C@@H](CC(N)=O)C(=O)N[C@@H]([C@@H](C)O)C(=O)N[C@@H](C)C(=O)N[C@@H]([C@@H](C)O)C(=O)N1)[C@@H](C)O)C(=O)N1CCC[C@H]1C(=O)N[C@@H](CO)C(=O)N[C@@H](CO)C(=O)N[C@H](C(=O)N[C@@H](CC(N)=O)C(=O)N[C@H](C(=O)NCC(=O)N1CCC[C@H]1C(=O)N[C@@H](CC(N)=O)C(=O)N[C@H](C(=O)N[C@@H](Cc1ccc(O)cc1)C(N)=O)[C@@H](C)O)C(C)C)[C@@H](C)O
# notes: analogue of human amylin; also called compound 65
# Molecular target: T1, human calcitonin receptor
# Experiment: cell-based or functional assay
row,Binder,hCTR funct. EC50 [nM]
1,B1,0.961
2,B2,5.13
3,B3,9.07
4,B4,3
5,B5,9.33
